Test results reported in IntAct's records for PubMed 33990585.

B1: Mitochondrial import receptor subunit TOM70 (Homo sapiens), O94826 (parent)
chain: MAASKPVEAAVVAAAVPSSGSGVGGGGTAGPGTGGLPRWQLALAVGAPLLLGAGAIYLWSRQQRRREARGRGDASGLKRNSERKTPEGRASPAPGSGHPEGPGAHLDMNSLDRAQAAKNKGNKYFKAGKYEQAIQCYTEAISLCPTEKNVDLSTFYQNRAAAFEQLQKWKEVAQDCTKAVELNPKYVKALFRRAKAHEKLDNKKECLEDVTAVCILEGFQNQQSMLLADKVLKLLGKEKAKEKYKNREPLMPSPQFIKSYFSSFTDDIISQPMLKGEKSDEDKDKEGEALEVKENSGYLKAKQYMEEENYDKIISECSKEIDAEGKYMAEALLLRATFYLLIGNANAAKPDLDKVISLKEANVKLRANALIKRGSMYMQQQQPLLSTQDFNMAADIDPQNADVYHHRGQLKILLDQVEEAVADFDECIRLRPESALAQAQKCFALYRQAYTGNNSSQIQAAMKGFEEVIKKFPRCAEGYALYAQALTDQQQFGKADEMYDKCIDLEPDNATTYVHKGLLQLQWKQDLDRGLELISKAIEIDNKCDFAYETMGTIEVQRGNMEKAIDMFNKAINLAKSEMEMAHLYSLCDAAHAQTEVAKKYGLKPPTL

Variants of: B1
Conditions: with orf9b_sars2 orf9b

Variant | effect of a mutation on the interaction
E549A | decreasing interaction strength
E549I | decreasing interaction strength
E477A | decreasing interaction strength
H583Q | with no effect
D545A | decreasing interaction strength
